Data set [1] concerns the target T1, Pho4 (S. cerevisiae, UniProt P07270 1-312).
T1 sequence: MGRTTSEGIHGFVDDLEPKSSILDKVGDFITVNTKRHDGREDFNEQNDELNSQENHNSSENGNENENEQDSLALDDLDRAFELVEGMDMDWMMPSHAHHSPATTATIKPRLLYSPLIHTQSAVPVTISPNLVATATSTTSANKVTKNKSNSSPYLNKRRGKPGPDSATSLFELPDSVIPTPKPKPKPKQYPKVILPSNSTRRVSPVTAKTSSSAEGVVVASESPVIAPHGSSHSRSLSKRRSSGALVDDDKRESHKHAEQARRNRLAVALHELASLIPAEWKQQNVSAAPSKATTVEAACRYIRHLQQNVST
In words: STAMMP.

Data set [2] deals with T2, MAX (Homo sapiens, UniProt P61244 1-160). In words: MITOMI.
T2 sequence (P61244 whole entry): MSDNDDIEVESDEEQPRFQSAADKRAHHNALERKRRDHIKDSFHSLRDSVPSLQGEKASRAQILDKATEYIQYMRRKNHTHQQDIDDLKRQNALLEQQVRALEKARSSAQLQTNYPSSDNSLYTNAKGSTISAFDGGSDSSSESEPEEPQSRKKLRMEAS
In data set [3] the target is T1, Pho4. The data set is described as follows: MITOMI.
Data set [4] deals with T2, MAX. In words: MITOMI. This is another data set of the same source.

Like-named read-outs stand apart in the source and are kept apart here.

B1: Motif + random 1 (dsDNA)
DNA 1: CGCACAGTCACTTAACGTCACGTGACCGGGGTATTTCAGGTCCGGCGGTATGAC
DNA 2: GTCATACCGCCGGACCTGAAATACCCCGGTCACGTGACGTTAAGTGACTGTGCG
As to B1, the binding result in data set [1] was “binds”.

B2: GT/AC 15bp (dsDNA)
DNA 1: CGCCCCAGCACTGCCAAGCCGACGTTAAAACGGGTTGCTTCATCAATCTGTGTGTGTGTGTGTGTCACGTGACACACACACACACACATATCGGCACTTGCGCTTGAGTGCATCGAATAGTTCGGTTTATGAGCGTCCGGCGGTATGAC
DNA 2: GTCATACCGCCGGACGCTCATAAACCGAACTATTCGATGCACTCAAGCGCAAGTGCCGATATGTGTGTGTGTGTGTGTCACGTGACACACACACACACACAGATTGATGAAGCAACCCGTTTTAACGTCGGCTTGGCAGTGCTGGGGCG
As for B2, in data set [2], the binding result was “binds”.

B3: ATGC/ATGC 60bp (dsDNA)
DNA 1: CGCATGCATGCATGCATGCATGCATGCATGCATGCATGCATGCATGCATGCATGCATGCATGCGTCACGTGACGCATGCATGCATGCATGCATGCATGCATGCATGCATGCATGCATGCATGCATGCATGCATCGTCCGGCGGTATGAC
DNA 2: GTCATACCGCCGGACGATGCATGCATGCATGCATGCATGCATGCATGCATGCATGCATGCATGCATGCATGCATGCGTCACGTGACGCATGCATGCATGCATGCATGCATGCATGCATGCATGCATGCATGCATGCATGCATGCATGCG
For B3, the binding result in data set [3] and in data set [4] was “binds” in each case.

These data come from article doi:10.1101/2022.05.24.493321.
